For the data set, the system named is Vesicular stomatitis virus (whole virion) (Vesicular stomatitis virus).

In turn, “TCCTCTGACTGTAACCACGCAGCCACCATACTGTCCCGTTTGCCCCCGCCGATTCCGTCGGCTTCTGGACTACCTATGC [SwAp11]” returned a binding signal (ohm (RCTV-RCTB)) of 373.
“CTCCTCTGACTGTAACCACGTACCACCCGTGGCCCTCACATCCCTCCTCTGTTCTCCGCGGGCTTCTGGACTACCTATGC [SwAp9]”: the binding signal (ohm (RCTV-RCTB)) was 1180.
In the case of “CTCCTCTGACTGTAACCACGTACCACCCGTGACCCTCACATCCCTCCTCTGTTCTCCGCGGGCTTCTGGACTACCTATGC [SwAp5]” it was 838; in that of “CTCCTCTGACTGTAACCACGTACCACCCGTGACCCTCACATCCCTCCTCTGACGTAACCACGCGGGCTTCTGGACTACCTATGC [SwAp8]”, 1680; in that of “CTCCTCTGACTGTAACCACGTACCGCCCGTGACCCTCACATCCCTCCTCTGTTCTCCGCGGGCTTCTGGACTACCTATGC [SwAp10]”, 3720.
“CTCCTCTGACTGTAACCACGCGCCCTCAGAACTTTTGTATCCGAACACCTGCATCGTCCGGGCTTCTGGACTACCTATGC [SwAp1]” showed a binding signal (ohm (RCTV-RCTB)) of 1040.
“CTCCTCTGACTGTAACCACGTGCCCCCTCCATCCCGAGTAACCTACGTCCATGTCTCGCTGGCTTCTGGACTACCTATGC [SwAp3]” yielded a binding signal (ohm (RCTV-RCTB)) of 803.
In the case of “CTCCTCTGACTGTAACCACGTACCACCCGTGACCCTTACATCCCTCCTCTGTTCTCCGCGGGCTTCTGGACTACCTATGC [SwAp12]” it was 2180; in that of “CTCCTCTGACTGTAACCACGTACCACCCGTGGCCCTCACATCCCTCCTCTGTTCTCCGCGGGCTTCTGGACTACCTATGC [SwAp7]”, 1770; in that of “CTCCTCTGACTGTAACCACGTACCACCCGTGACGCGCACATCCCTCCTCTGTTCTCCGCGGGCTTCTGGACTACCTATGC [SwAp2]”, 1420.
In the case of “CTCCTCTGACTGTAACCACGTGGCACTGTTGTCATCACTGTCCCCCCCTAACTCGTCCGTGGCTTCTGGACTACCTATGC [SwAp6]” it was 1290; in that of “CTCCTCTGACTGTAACCACGGCACCCCGAGGCAATTTCGCGCATAGTTCATCCTGTTTGGGGCTTCTGGACTACCTATGC [SwAp15]”, 930; in that of “CTCCTCTGACTGTAACCACGTACCACCCTTGACCCTCACATCCCTCCTCTGTTCTCCGCGGGCTTCTGGACTACCTATGC [SwAp14]”, 709.
Regarding “CTCCTCTGACTGTAACCACGNNNNNNNNNNNNNNNNNNNNNNNNNNNNNNNNNNNNNNNGGCTTCTGGACTACCTATGC [Pool 10]”, the binding signal (ohm (RCTV-RCTB)) was 182.
For the sequence “CTCCTCTGACTGTAACCACGTACCACCCGTGACCCTCACATCCCTCCTCTGTTCTCCGCGGGCTTCTGGACTACCTATGC [SwAp13]”, the binding signal (ohm (RCTV-RCTB)) amounted to 1980.
Regarding “CTCCTCTGACTGTAACCACGTGCCCCCTCCATCCCGAGTAACCTACGTCCATGTCTCGCTGGCTTCTGGACTACCTATGC [SwAp4]”, the binding signal (ohm (RCTV-RCTB)) was found to be 955.

The record behind these values is patent publication US20140342918.
